In patent US20180086841A1 (Merck Sharp & Dohme, published 2018):
Substitutions are numbered along the chain they refer to.

T1: K17A
T1 construct: also called hCD27 K17A
T1 receptor chain: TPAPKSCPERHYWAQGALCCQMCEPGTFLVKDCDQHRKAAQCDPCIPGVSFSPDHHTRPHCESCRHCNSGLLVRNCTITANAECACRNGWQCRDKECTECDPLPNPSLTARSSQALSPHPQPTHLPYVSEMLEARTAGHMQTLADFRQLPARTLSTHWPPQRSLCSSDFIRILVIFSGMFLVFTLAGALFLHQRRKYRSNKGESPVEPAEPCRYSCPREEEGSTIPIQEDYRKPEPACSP

T2: P8A
T2 construct: also called hCD27 P8A
T2 receptor chain: T1 receptor chain with P8A, A17K

T3: H60A
T3 construct: also called hCD27 H60A
T3 receptor chain: T1 receptor chain with A17K, H60A

T4: R10A
T4 construct: also called hCD27 R10A
T4 receptor chain: T1 receptor chain with R10A, A17K

T5: W90A
T5 construct: also called hCD27 W90A
T5 receptor chain: T1 receptor chain with A17K, W90A

T6: G16A
T6 construct: also called hCD27 G16A
T6 receptor chain: T1 receptor chain with G16A, A17K

T7: K31A
T7 construct: also called hCD27 K31A
T7 receptor chain: T1 receptor chain with A17K, K31A

T8: P44A
T8 construct: also called hCD27 P44A
T8 receptor chain: T1 receptor chain with A17K, P44A

T9: Q91A
T9 construct: also called hCD27 Q91A
T9 receptor chain: T1 receptor chain with A17K, Q91A

T10: N88A
T10 construct: also called hCD27 N88A
T10 receptor chain: T1 receptor chain with A17K, N88A

B1: hCD27.15-6B (antibody, human IgG4 S228P, kappa, V domains shown)
VH: QVQLVQSGAEVKKPGASVKVSCKASGFIIKATYMHWVRQAPGQRLEWMGRIDPANGETKYDPKFQVRVTITADTSASTAYMELSSLRSEDTAVYYCARYAWYFDVWGQGTLVTVSS
VL: DIQMTQSPSSLSASVGDRVTITCRASENIYSFLAWYQQKPGKAPKLLIYHAKTLAEGVTSRFSGSGSGTDFTLTISSLQPEDSATYYCQHYYGSPLTFGQGTRLEIKR
notes: also called hCD27.15 (humanized 6B); humanized hCD27.15 (human IgG4, Clone 6B)
B2: hCD27.131A (mouse parental 131A) (antibody, mouse IgG1, V domains shown)
VH: QIQLVQSGPELKKPGETVKISCKASGYTFTNYGMNWVKQAPGKGLKWMGWINTNTGEPTYAEEFKGRFAFSLETSATTAYLQINNLKNEDTATYFCAREGDAMDYWGQGTSVTVSS
VL: QIVLTQSPAIMSASPGEKVTMTCSASSSVSYMHWYQQKSGTSPKRWIYDTSKLASGVPARFSGSGSGTSYSLTISSMEAEDAATYYCQQWNSYPFTFGSGTKLEIK
notes: Mouse IgG1 antibody; also called mouse hCD27.131A

Columns and labels:
[1] = molecular target: T1, K17A; experiment: flow cytometry on CHO-K1 transfectants;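 note: Anti-hCD27 antibodies tested on transiently transfected CHO-K1 cells bearing hCD27 alanine mutants, 30 min at 4 °C primary incubation, FITC readout excluding debris, dead cells and doublets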
Protocol: (§1) The hCD27 variants that were tested are listed. Amino acids correspond to the UniProt P26842-1 sequence. Amino acids 1-20 constitute the signal peptide. Binding is expressed as the geometric mean of the FITC signal, relative to antibody binding to hCD27, which was set at 100%.
(§2) The ability of several anti-hCD27 antibodies to bind to a series of hCD27 alanine mutants was determined using CHO-K1 cells, transiently transfected pCI-neo empty vector, pCI-neo.hCD27 and several pCI-neo.CD27Ala mutant constructs.
(§3) Detached cells were transferred to 96 wells round-bottomed well plates at approximately 1.2×10⁵ cells/well. After spinning down the cells, discarding the supernatants and re-suspending the cells in the residual volume, the primary antibodies were added and incubated for 30 minutes at 4° C. Cells were washed three times with DPBS/BSA 1%, followed by centrifugation, discarding of the supernatants and re-suspension in the residual volume. […] After washing once, antibody binding was detected using the HTS plate reader (FACS Canto II) and FlowJo software for data analysis. Debris, dead cells and doublets were excluded from the analysis. Binding was expressed as the geometric mean of the FITC signal, relative to antibody binding to hCD27, which was set at 100%.

[2] = molecular target: T2, P8A; experiment: flow cytometry on CHO-K1 transfectants;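 note: Anti-hCD27 antibodies tested on transiently transfected CHO-K1 cells bearing hCD27 alanine mutants, 30 min at 4 °C primary incubation, FITC readout excluding debris, dead cells and doublets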
Protocol: as §1, §2, §3

[3] = molecular target: T3, H60A; experiment: flow cytometry on CHO-K1 transfectants;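 note: Anti-hCD27 antibodies tested on transiently transfected CHO-K1 cells bearing hCD27 alanine mutants, 30 min at 4 °C primary incubation, FITC readout excluding debris, dead cells and doublets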
Protocol: as §1, §2, §3

[4] = molecular target: T4, R10A; experiment: flow cytometry on CHO-K1 transfectants;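 note: Anti-hCD27 antibodies tested on transiently transfected CHO-K1 cells bearing hCD27 alanine mutants, 30 min at 4 °C primary incubation, FITC readout excluding debris, dead cells and doublets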
Protocol: as §1, §2, §3

[5] = molecular target: T5, W90A; experiment: flow cytometry on CHO-K1 transfectants, right sub-column
Protocol: as §1, §2, §3

[6] = molecular target: T6, G16A; experiment: as above
Protocol: as §1, §2, §3

[7] = molecular target: T7, K31A; experiment: as above
Protocol: as §1, §2, §3

[8] = molecular target: T8, P44A; experiment: as above
Protocol: as §1, §2, §3

[9] = molecular target: T9, Q91A; experiment: as above
Protocol: as §1, §2, §3

[10] = molecular target: T10, N88A; experiment: as above
Protocol: as §1, §2, §3

[11] = molecular target: T4, R10A; experiment: as above
Protocol: as §1, §2, §3

| binding, WT hCD27 = 100 (GM FITC) [1] | binding, WT hCD27 = 100 (GM FITC) [2] | binding, WT hCD27 = 100 (GM FITC) [3] | binding, WT hCD27 = 100 (GM FITC) [4] | binding, WT hCD27 = 100 (GM FITC) [5] | binding, WT hCD27 = 100 (GM FITC) [6] | binding, WT hCD27 = 100 (GM FITC) [7] | binding, WT hCD27 = 100 (GM FITC) [8] | binding, WT hCD27 = 100 (GM FITC) [9] | binding, WT hCD27 = 100 (GM FITC) [10] | binding, WT hCD27 = 100 (GM FITC) [11] | Binder |
| --- | --- | --- | --- | --- | --- | --- | --- | --- | --- | --- | --- |
| 120% | 63% | 82.6% | 58.9% | – | – | – | – | – | – | – | B1 |
| – | – | – | – | 102% | 108% | 134% | 91% | 136% | 124% | 108% | B2 |
